Measured values reported in PMC4666396, “Mammalian splicing factor SF1 interacts with SURP domains of U2 snRNP-associated proteins” (Nucleic Acids Research, 2015).

T1: His6-SF1-C370 (human, UniProt Q15637 1-370)
T1 construct: human SF1, amino acids 1–370, the region common to all SF1 isoforms; in pTrcHisA; source: E. coli XL1-Blue, purified (TALON resin, lysis in 8 M urea, dialyzed); not shown: His6, N-terminal, kept
T1 sequence (looked up): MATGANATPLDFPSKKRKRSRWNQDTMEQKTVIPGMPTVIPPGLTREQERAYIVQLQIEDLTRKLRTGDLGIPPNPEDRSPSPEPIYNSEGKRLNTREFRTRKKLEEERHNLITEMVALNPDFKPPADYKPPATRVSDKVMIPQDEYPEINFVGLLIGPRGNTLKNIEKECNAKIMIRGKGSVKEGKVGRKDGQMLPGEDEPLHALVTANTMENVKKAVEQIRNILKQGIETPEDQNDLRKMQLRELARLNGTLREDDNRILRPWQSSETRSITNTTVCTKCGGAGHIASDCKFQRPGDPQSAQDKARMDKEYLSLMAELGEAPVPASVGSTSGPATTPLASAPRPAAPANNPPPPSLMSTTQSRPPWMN

T2: His6-SF1-C327 (human, UniProt Q15637 1-327)
T2 construct: human SF1, C-terminal truncation to residue 327; SF1-C370 is 1–370; source: E. coli XL1-Blue, purified (TALON resin, lysis in 8 M urea, dialyzed); not shown: His6, N-terminal, kept
T2 sequence (looked up): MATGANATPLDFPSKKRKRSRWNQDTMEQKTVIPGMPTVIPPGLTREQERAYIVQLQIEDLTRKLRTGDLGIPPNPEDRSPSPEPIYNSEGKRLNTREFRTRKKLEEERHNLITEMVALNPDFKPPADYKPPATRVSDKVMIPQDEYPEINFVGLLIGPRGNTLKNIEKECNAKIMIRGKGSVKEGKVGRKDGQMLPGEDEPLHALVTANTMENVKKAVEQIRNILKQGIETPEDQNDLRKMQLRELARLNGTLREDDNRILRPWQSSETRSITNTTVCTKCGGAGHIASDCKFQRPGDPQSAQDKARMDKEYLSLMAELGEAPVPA

T3: His6-MBP-SF1-C370 Δ306–326 (human, UniProt Q15637 1-370, Δ306–326, replaced by one KpnI site encoding Gly and Thr)
T3 construct: in pETMBP-1a; source: E. coli BL21, purified (TALON resin, lysis in 8 M urea, dialyzed); not shown: His6, N-terminal, kept; MBP, N-terminal, kept
T3 sequence (looked up): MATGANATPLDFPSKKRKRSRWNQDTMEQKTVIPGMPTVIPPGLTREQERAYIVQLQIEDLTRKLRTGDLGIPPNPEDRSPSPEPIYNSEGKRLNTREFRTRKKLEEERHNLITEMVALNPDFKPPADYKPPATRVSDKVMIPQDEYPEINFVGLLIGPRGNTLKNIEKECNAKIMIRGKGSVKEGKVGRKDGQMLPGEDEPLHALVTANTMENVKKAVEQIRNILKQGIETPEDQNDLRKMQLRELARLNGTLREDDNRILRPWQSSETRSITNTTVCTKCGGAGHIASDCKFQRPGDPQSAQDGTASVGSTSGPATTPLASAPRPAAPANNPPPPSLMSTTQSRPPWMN

T4: His6-SF1-C320 (human, UniProt Q15637 1-320)
T4 construct: human SF1, C-terminal truncation to amino acid 320; it follows the naming of the other truncations; also called deletion to amino acid 320; source: E. coli XL1-Blue, purified (TALON resin, lysis in 8 M urea, dialyzed); not shown: His6, N-terminal, kept
T4 sequence (looked up): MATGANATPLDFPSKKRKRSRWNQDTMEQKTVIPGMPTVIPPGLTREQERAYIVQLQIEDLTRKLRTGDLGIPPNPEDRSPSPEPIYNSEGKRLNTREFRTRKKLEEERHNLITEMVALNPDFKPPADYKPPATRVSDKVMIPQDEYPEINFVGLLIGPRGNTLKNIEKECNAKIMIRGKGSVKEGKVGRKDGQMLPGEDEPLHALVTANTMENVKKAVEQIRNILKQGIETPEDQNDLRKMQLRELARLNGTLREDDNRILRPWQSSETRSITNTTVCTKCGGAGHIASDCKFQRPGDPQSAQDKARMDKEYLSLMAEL

T5: His6-SF1-C302 (human, UniProt Q15637 1-302)
T5 construct: source: E. coli XL1-Blue, purified (TALON resin, lysis in 8 M urea, dialyzed); not shown: His6, N-terminal, kept
T5 sequence (looked up): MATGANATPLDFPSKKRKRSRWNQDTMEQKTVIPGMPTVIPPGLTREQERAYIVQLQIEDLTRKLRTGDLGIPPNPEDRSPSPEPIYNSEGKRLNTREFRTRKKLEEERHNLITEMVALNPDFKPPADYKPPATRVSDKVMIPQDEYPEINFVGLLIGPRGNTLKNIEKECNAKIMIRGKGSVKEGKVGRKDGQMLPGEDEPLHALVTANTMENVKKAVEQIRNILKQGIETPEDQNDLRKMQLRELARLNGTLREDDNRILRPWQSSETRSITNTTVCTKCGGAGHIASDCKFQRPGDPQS

T6: His6-SF1-C315 (human, UniProt Q15637 1-315)
T6 construct: source: E. coli XL1-Blue, purified (TALON resin, lysis in 8 M urea, dialyzed); not shown: His6, N-terminal, kept
T6 sequence (looked up): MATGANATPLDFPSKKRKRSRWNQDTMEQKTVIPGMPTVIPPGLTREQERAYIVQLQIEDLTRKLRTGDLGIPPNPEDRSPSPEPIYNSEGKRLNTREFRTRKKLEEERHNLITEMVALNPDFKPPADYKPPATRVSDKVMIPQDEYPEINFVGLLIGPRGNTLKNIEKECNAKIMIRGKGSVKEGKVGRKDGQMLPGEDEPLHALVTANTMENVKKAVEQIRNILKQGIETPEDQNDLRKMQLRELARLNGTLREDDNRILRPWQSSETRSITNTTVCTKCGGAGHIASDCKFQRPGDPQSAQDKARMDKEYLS


Tests used:
Test in all cases: pull-down; GST fusion proteins on glutathione-agarose; His6- or His6-MBP-tagged SF1 proteins in two-fold molar excess; NETN (20 mM Tris-HCl pH 8.0, 50 mM NaCl, 0.5% NP-40, 0.5 mM EDTA), 45 min 4°C; with or without RNase A; western blot with anti-His6
Conditions in all cases: both partners purified
His6-SF1-C370 = target: T1, His6-SF1-C370
His6-SF1-C327 = target: T2, His6-SF1-C327
[1] = target: T3, His6-MBP-SF1-C370 Δ306–326
His6-SF1-C320 = target: T4, His6-SF1-C320
His6-SF1-C302 = target: T5, His6-SF1-C302
His6-SF1-C315 = target: T6, His6-SF1-C315

Row | binding result (His6-SF1-C370) | binding result (His6-SF1-C327) | binding result [1] | binding result (His6-SF1-C320) | binding result (His6-SF1-C302) | binding result (His6-SF1-C315) | Binder
1 | binds | binds |  |  |  |  | GST-CHERP-SURP (domain or fragment, UniProt Q8IWX8 1-75, looked up, single SURP domain of CHERP, amino acids 1–75, in pDEST15; also called single SURP domain of CHERP; source: E. coli BL21, purified (glutathione agarose)) MEMPLPPDDQELRNVIDKLAQFVARNGPEFEKMTMEKQKDNPKFSFLFGGEFYSYYKCKLALEQQQLICKQQTPE
2 | binds | binds | binds | binds | binds | binds | GST-U2AF65-UHM (domain or fragment, UniProt P26368 367-475, looked up, U2AF homology motif (UHM) of U2AF65, amino acids 367–475; also called U2AF homology motif of U2AF65; source: E. coli XL1-Blue, purified (glutathione agarose)) QVQMGGHPTEVLCLMNMVLPEELLDDEEYEEIVEDVRDECSKYGLVKSIEIPRPVDGVEVPGCGKIFVEFTSVFDCQKAMQGLTGRKFANRVVVTKYCDPDSYHRRDFW
3 | binds | binds |  |  |  |  | GST-SF3a120-SURP1 (domain or fragment, UniProt Q15459 38-113, looked up, SURP1 of SF3a120, amino acids 38–113, in pDEST15; also called SURP1 of SF3a120; source: E. coli BL21, purified (glutathione agarose)) PVVGIIYPPPEVRNIVDKTASFVARNGPEFEARIRQNEINNPKFNFLNPNDPYHAYYRHKVSEFKEGKAQEPSAAI
